To fix the notation:
B1: Homeobox expressed in ES cells 1, residues 110 to 165; numbered along this chain, Q9UBX0 (parent)
chain: RPRTAFTQNQIEVLENVFRVNCYPGIDIREDLAQKLNLEEDRIQIWFQNRRAKLKR

± gives the uncertainty stated by the source.

The variants in the data set derive from B1. The data set is described as follows: abundance fitness (aPCA) (normalised: wild type 0, dead -1); higher = more abundant; growth selection in yeast, the domain comes from the species named. The settings on record: Homo sapiens.
Regarding F47D, the abundance fitness is -0.576 ± 0.46. For the variant F47A, the abundance fitness is -0.698 ± 0.17. With F47V, the abundance fitness is -0.841 ± 0.25. Take F47R: the abundance fitness is -0.952 ± 0.2. Then F47S, with -0.724 ± 0.37; and F47E, with -0.942 ± 0.32. Regarding F47W, the abundance fitness was -0.908 ± 0.44. As for F47L, the abundance fitness is -0.842 ± 0.19.

On to F47C, for which the abundance fitness is -0.851 ± 0.28. As to F47Y, the abundance fitness is -0.455 ± 0.49. F47G: the abundance fitness is -0.855 ± 0.09. In the case of K55P it was -0.042 ± 0.19; in that of K55D, -0.419 ± 0.37. Take K55Y: the abundance fitness was -0.479 ± 0.35. For K55M, the abundance fitness was -0.181 ± 0.078. Then K55N, with -0.068 ± 0.31; and K55R, with -0.369 ± 0.089. Then K55V, with -0.672 ± 0.37. In the case of K55F it was -0.349 ± 0.46. Turning to K55L, the abundance fitness is -0.583 ± 0.23.

Consider K55S, for which the abundance fitness is -0.399 ± 0.12. In the case of K55I it was 0.143 ± 0.15; in that of K55G, -0.302 ± 0.21. Turning to K55H, the abundance fitness is -0.27 ± 0.12. In the case of K55A it was -0.451 ± 0.24; in that of K55E, 0.334 ± 0.17. Then Q44M, with -0.12 ± 0.26; and Q44V, with -0.161 ± 0.12; and Q44T, with 0.038 ± 0.1.

As to Q44Y, the abundance fitness is -0.582 ± 0.33. Then Q44L, with -0.079 ± 0.11. In the case of Q44I it was 0.061 ± 0.12. On to Q44A, for which the abundance fitness was found to be 0.087 ± 0.14. In the case of Q44D it was -0.007 ± 0.17; in that of Q44C, 0.033 ± 0.085. In the case of Q44E it was -0.532 ± 0.33; in that of Q44K, 0.179 ± 0.17; in that of Q44P, -0.982 ± 0.31. In the case of Q44F it was -0.385 ± 0.28; in that of Q44S, -0.129 ± 0.08; in that of Q44H, 0.35 ± 0.18. As to Q44G, the abundance fitness was -0.206 ± 0.12. Then Q44N, with -0.059 ± 0.26; and Q44W, with -0.277 ± 0.23; and R42T, with 0.257 ± 0.14. In the case of R42S it was 0.096 ± 0.078; in that of R42A, 0.076 ± 0.11. In the case of R42Q it was 0.351 ± 0.3; in that of R42D, -0.361 ± 0.25. Regarding R42L, the abundance fitness is -0.156 ± 0.16. In the case of R42C it was -0.03 ± 0.12; in that of R42V, 0.135 ± 0.072; in that of R42W, 0.065 ± 0.22. Then R42N, with 0.049 ± 0.15; and R42G, with -0.399 ± 0.11; and R42E, with 0.255 ± 0.2. Turning to R42Y, the abundance fitness stood at 0.037 ± 0.36. With R42K, the abundance fitness was 0.184 ± 0.3. In the case of R42I it was 0.055 ± 0.3; in that of R42H, -0.05 ± 0.077; in that of L36D, -0.862 ± 0.3.

For L36F, the abundance fitness turned out to be 0.221 ± 0.2. In the case of L36C it was -0.508 ± 0.31.

For L36W, the abundance fitness was -0.132 ± 0.097. As for L36S, the abundance fitness was -0.855 ± 0.34. Consider L36G, for which the abundance fitness is -0.86 ± 0.15. In the case of L36M it was -0.11 ± 0.34; in that of L36R, -0.984 ± 0.19. In the case of L36A it was -1.01 ± 0.36; in that of L36V, -1.01 ± 0.21; in that of L36E, -0.924 ± 0.34. Consider L36H, for which the abundance fitness was -0.712 ± 0.13. As to L36K, the abundance fitness is -0.931 ± 0.36.

Consider N49L, for which the abundance fitness was -0.19 ± 0.1. As to N49A, the abundance fitness stood at 0.217 ± 0.13. In the case of N49F it was -0.604 ± 0.41; in that of N49S, -0.198 ± 0.16. Then N49H, with -0.232 ± 0.31; and N49R, with -0.291 ± 0.14. In the case of N49I it was -0.46 ± 0.23. N49T: the abundance fitness is -0.019 ± 0.11. Then N49Q, with -0.124 ± 0.37. For N49K, the abundance fitness was -0.102 ± 0.23. With N49D, the abundance fitness was 0.044 ± 0.11. As for N49P, the abundance fitness is -0.648 ± 0.34. With N49W, the abundance fitness was -0.471 ± 0.11. Turning to N49E, the abundance fitness was 0.43 ± 0.12. N49C: the abundance fitness was -0.425 ± 0.088. Turning to N49G, the abundance fitness is -0.527 ± 0.093. For N49M, the abundance fitness was determined as 0.052 ± 0.2.

In the case of E39Y, the abundance fitness was -0.675 ± 0.12. In the case of E39K, the abundance fitness is -0.476 ± 0.45. In the case of E39R it was -0.34 ± 0.11. Turning to E39D, the abundance fitness worked out at 0.333 ± 0.33. In the case of E39S it was 0.02 ± 0.082; in that of E39C, -0.104 ± 0.088. In the case of E39Q it was -0.185 ± 0.15; in that of E39L, -0.507 ± 0.12; in that of E39V, -0.619 ± 0.12.

As for E39N, the abundance fitness is -0.241 ± 0.26. In the case of E39A it was -0.144 ± 0.18. Consider E39G, for which the abundance fitness is -0.154 ± 0.098.

Consider E39I, for which the abundance fitness was -1.06 ± 0.36. In the case of E39W it was -0.752 ± 0.23; in that of E39M, -0.562 ± 0.15. Consider D41Q, for which the abundance fitness is -0.012 ± 0.21. Then D41T, with 0.023 ± 0.11; and D41P, with -0.044 ± 0.15; and D41N, with 0.665 ± 0.18. In the case of D41V it was -0.095 ± 0.13; in that of D41G, -0.171 ± 0.094; in that of D41W, 0.055 ± 0.15. Then D41I, with -0.027 ± 0.17; and D41K, with -0.174 ± 0.23. Consider D41F, for which the abundance fitness was -0.139 ± 0.12. In the case of D41E, the abundance fitness is 0.08 ± 0.1. As for D41S, the abundance fitness worked out at 0.115 ± 0.11. Then D41H, with -0.039 ± 0.31; and D41C, with -0.081 ± 0.15.

With D41M, the abundance fitness is -0.174 ± 0.14. Turning to D41R, the abundance fitness was determined as 0.026 ± 0.073. Then L38C, with 0.151 ± 0.11. Turning to L38G, the abundance fitness was -0.952 ± 0.19.

Consider L38N, for which the abundance fitness was -0.572 ± 0.27. On to L38E, for which the abundance fitness is -0.521 ± 0.25.

As to L38S, the abundance fitness is -0.259 ± 0.11. For L38P, the abundance fitness is -0.533 ± 0.25. In the case of L38W it was -0.885 ± 0.36; in that of L38D, -0.665 ± 0.38. Then L38V, with 0.061 ± 0.065; and L38K, with -0.685 ± 0.42.

With L38F, the abundance fitness is 0.009 ± 0.13. In the case of L38Q it was -0.223 ± 0.39; in that of L38R, -0.849 ± 0.1; in that of L38Y, -0.717 ± 0.26. For L38A, the abundance fitness is -0.181 ± 0.14. Regarding L38I, the abundance fitness was determined as 0.146 ± 0.12. With L38T, the abundance fitness was 0.077 ± 0.074. In the case of I43S it was -0.917 ± 0.25. As to I43T, the abundance fitness was -0.543 ± 0.31.

Take I43K: the abundance fitness is -0.451 ± 0.4. Consider I43L, for which the abundance fitness was -0.581 ± 0.16. For I43P, the abundance fitness was -0.912 ± 0.44. For I43W, the abundance fitness is -0.822 ± 0.16.

With I43E, the abundance fitness was -0.966 ± 0.48. Regarding I43R, the abundance fitness is -0.936 ± 0.26. As to I43Q, the abundance fitness was -0.796 ± 0.46. For I43G, the abundance fitness was -0.98 ± 0.13. Take R50E: the abundance fitness was 0.178 ± 0.071. In the case of R50M it was -0.38 ± 0.26; in that of R50H, -0.242 ± 0.34; in that of R50D, -0.443 ± 0.22. Take R50Q: the abundance fitness turned out to be 0.153 ± 0.2. Then R50V, with -0.727 ± 0.21.

Turning to R50N, the abundance fitness is -0.378 ± 0.3. Then R50G, with -0.782 ± 0.13; and R50L, with -0.818 ± 0.38; and R50S, with -0.666 ± 0.22. As to R50C, the abundance fitness was -0.614 ± 0.3. Then R50K, with -0.39 ± 0.34; and R50P, with -0.954 ± 0.41; and R50T, with -0.236 ± 0.24. R50A: the abundance fitness is -0.206 ± 0.083.
